Measured values as given in the supplement of paper PMC9170038.

Tested on: MS2 coat protein
Assay: apparent KD of MS2 coat protein; designed switch direction (-1 OFF switch, 1 ON switch): -1; higher = weaker reporter binding
Outline: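 An oligonucleotide input, 200 uM small-molecule ligand, or no input was present during titration of SNAP-549-labelled MS2 coat protein, which was doubled from 0.7 or 1.5 nM to 3 µM. Designed RNA switches had been transcribed on Illumina chips by stalled E. coli RNA polymerase. Apparent KD per design is the median over clusters of curves fitted to normalised cluster fluorescence.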

[1] = input ligand: microRNA oligo, concentration not stated
[2] = Eterna round: R95, input ligand: microRNA oligo, concentration not stated

Row | Sequence | apparent KD of MS2 coat protein (input ligand: FMN 200 uM) [nM] | apparent KD of MS2 coat protein [1] [nM] | apparent KD of MS2 coat protein (input ligand: none) [nM] | apparent KD of MS2 coat protein [2] [nM]
1 | AAUAACAGAGGAUAUACUAUUUUAUGUGUUUGUUAUUUUAAACAUGAGGAUCACCCAUGUAGAAGGCUGAUUAA [JMF 44] (Eterna round: R96, puzzle: Exclusion 2) | 47.7 | 34.3 | 42.7 | –
2 | UUUCAUCAUGUAGGAUAUGCGUGGCGAAGCUAUGCAGAAGGACAUGAGGAUCACCCAUGUUCUUGCGUCUGCGUACAGAUGCAA [JL ENG1 1.34] (Eterna round: R96, puzzle: Exclusion NG 1) | 266 | 35.5 | 43 | –
3 | ACACUGCGAGGAUAUACAUGAGGAUCACCCAUGUAUCGGUAGACAAGGUUAAUUUAAGGUAGAAGGCGCGUAUU [JR_Ex3_Sub008] (Eterna round: R97, puzzle: Exclusion 3) | 36.9 | – | 29.1 | –
4 | GUCACCUCGGUGACAAAGCACAUGAGGAUCACCCAUGUAUGUGCUUGGAAACAAGCAUUUUGUUCGUCUUAUAAGAA [same principle] (Eterna round: R96, puzzle: Sensor v2, turn-off variant) | 22.7 | 95.4 | 21.6 | –
5 | CGCUGGACAGGAUAUGUUCUUGGGCACUUGAGGAUCACCCAAGUCAUCGGGACAUCAGGCACAGAAGGGUUGUUGG [salish99_ex5_r4_028] (Eterna round: R97, puzzle: Exclusion 5) | 25.5 | – | 27.1 | –
6 | AAACUGAGGCAAAGCUUUAGUCGUACAUGAGGAUCACCCAUGUAGGAUAUGGUAGGCUUUGCUUACCAGAAGGACAGAGUGAUC [Mat - Exclusion NG 3 - Mod of JL - D56] (Eterna round: R96, puzzle: Exclusion NG 3) | 235 | 103 | 110 | –
7 | AAGAUGCCAAAGGAUAUCGAAGGAGUGGCGCGGCGAGAAGGUUGGACAUGAGGAUCACCCAUGUGGUGGCUCCC [Usmaarri] (Eterna round: R97, puzzle: Exclusion 6) | 703 | – | 1070 | –
8 | CAGUACUGAGGAUAUACAUGAGGAUCACCCAUGUGUCCCGGCUAGGAAACUAGCAAAAGUAGAAGGCAGUACUG [Fiskers Ex 3 828 mod 2] (puzzle: Exclusion 3) | – | – | – | 25.1
9 | UAUGGUUAAGUCAGGAUAUACUAAUAGAAAUCUGAGUAGAAGGGACAUGAGGAUCACCCAUGUAUGGUAGUGUU [Ex4 #58] (Eterna round: R97, puzzle: Brourd's mod of Exclusion 4) | 77.1 | – | 55.2 | –
10 | UAUAACAGAGGAUAUGCGAAUAAAUAAAACUUUUUUUUUUAACAUGAGGAUCACCCAUGUAGAAGGCUGAUAUU [Ex2 #22] (Eterna round: R97, puzzle: Exclusion 2) | 28.5 | – | 51.6 | –
11 | UAAAAUCUAGGAUAUACAUGAGGAUCACCCAUGUUGCUCCCAGCUCGUGACCUCCAAUGUAGAAGGAGAACGAU [EX3 A.15] (Eterna round: R97, puzzle: Exclusion 3) | 19.8 | – | 20.1 | –
12 | GCCAAGUCAGGAUAUACAUGAGGAUCACCCAUGUAGGACGCUAUUUUGAUCUUGGUAGGUAGAAGGGACAUGGG [Mainaso] (puzzle: Exclusion 3) | – | – | – | 21.8
13 | GCCGAAAGUGUGAGGAUAUACCUAUGGAAACAUAGGUAGAAGGCACAUGAGGAUCACCCAUGUGUUUCAACGGC [Mat - Exclusion 4 - Eli Mod - D20] (Eterna round: R97, puzzle: Brourd's mod of Exclusion 4) | 67 | – | 24.5 | –
14 | CCCUUGUGAGGAUAUAGUAGUUGCACAUCGAUAGAGUAACUCUAGAAGGCACAUGAGGAUCACCCAUGUACGAA [Eternabot (L1) Solution 56] (Eterna round: R97, puzzle: Exclusion 4) | 70.2 | – | 119 | –
15 | CAGGUGUAAGGAUAUACCGGAUGGUCCAAAGCUUGGCAAAGACAUGAGGAUCACCCAUGUAGAAGGUACGUCCG [Eternabot (Original) Solution 21] (Eterna round: R97, puzzle: Exclusion 2) | 313 | – | 383 | –
16 | GUUAACGUAGGAUAUUAGUACAUACACAUGAGGAUCACCCAUGUUUAGUGGGUCUAAGAAUAAGAAGGGCGAAGAA [EX5 #25] (Eterna round: R97, puzzle: Exclusion 5) | 117 | – | 130 | –
17 | AAACCACAUGAGGAUCACCCAUGUGAGGAUAUGAUACUAUGUACUUCGGUACAUAGUAUCAGAAGGCAUGUGGA [Ex1-3: 88] (puzzle: Exclusion 1) | – | – | – | 168
18 | CCAUCACAUGAGGAUCACCCAUGUGAGGAUAUGUUUUUGGUGCGUAUAAAGCCUGGGAACAGAAGGUACAGGGA [Eternabot (L2) Solution 50] (Eterna round: R97, puzzle: Exclusion 1) | 15.3 | – | 12.9 | –

Row | Sequence | apparent KD of MS2 coat protein (input ligand: FMN 200 uM) [nM] | apparent KD of MS2 coat protein [1] [nM] | apparent KD of MS2 coat protein (input ligand: none) [nM] | apparent KD of MS2 coat protein [2] [nM]
19 | CCGUAACAUGAGGAUCACCCAUGUCAGGAUAUUCCAAAAUCGUCGAAAGACGAUAACAGAAGAAGGGACAGUGG [Fiskxlusion 5 - Jieux - Exclusion 1] (Eterna round: R97, puzzle: Exclusion 1) | 104 | – | 111 | –
20 | UGUGUGUUUGUGAGGAUAUUGUGUGUGAAAGCGCGCGAGAAGGCACAUGAGGAUCACCCAUGUAAGGGCGCGCG [-26, -24 kcal, A 23%, 6bis-6] (Eterna round: R97, puzzle: Brourd's mod of Exclusion 4) | 20.2 | – | 23 | –
21 | UUUUAGUCAGGAUAUACAUGAGGAUCACCCAUGUAAAAUUUUAAUUUAAUUUUAAGGUGUAGAAGGGACAUUUU [Ex3 #5] (Eterna round: R97, puzzle: Exclusion 3) | 24.5 | – | 27.6 | –
22 | CCUCUACAUGAGGAUCACCCAUGUUAGGAUAUGCCGGCCGACCUCGGGUGUGUAAUACGCAGAAGGAACGUUAC [Eternabot (Original) Solution 49] (Eterna round: R97, puzzle: Exclusion 1) | 835 | – | 2390 | –
23 | GAGUACUGAGGAUAUACAUGAGGAUCACCCAUGUGUUCCAGCUAGGAAACUAGCAAAAGUAGAAGGCAGUACUG [salish99_ex3_r3_084] (puzzle: Exclusion 3) | – | – | – | 18.9
24 | AUAAUGUAAGGAUAUCAGUCGUACAGCGAUAGCUGUACGACUGAGAAGGUACAUGAGGAUCACCCAUGUGAUCA [E4/8-A4] (Eterna round: R97, puzzle: Exclusion 4) | 666 | – | 3680 | –
25 | CAUUAUGUUGAGGAUAUGCGCCGGCUCGCUGACGCAGAAGGCGACACAUGAGGAUCACCCAUGUCAGUUCGCGA [salish99_ex6_r004_420] (Eterna round: R97, puzzle: Exclusion 6) | 15.8 | – | 14.5 | –
26 | GCAGACGUAGUGAGGAUAUGCUCUACCUCGGUAGAGCAGAAGGCACAUGAGGAUCACCCAUGUGGCUCCUCAUU [Omei Ex4B B22] (Eterna round: R97, puzzle: Brourd's mod of Exclusion 4) | 16.8 | – | 15 | –
27 | GCAAGCUUUAUCAAUAAGAACAUGAGGAUCACCCAUGUAUAAGGUAUUACUUUUGGGCUCUUUAGUGCUCGUCUUAU [JR_STOV1_Sub034] (Eterna round: R97, puzzle: Sensor, turn-off variant 1) | 47.4 | – | 51.5 | –
28 | UAUUCACAUGAGGAUCACCCAUGUCAGGAUAUGCUCGAUAUAUGGAAACAUAUAUCGAGCAGAAGGGACUAGCG [Jieuxxlusion 8 - Jieux - Exclusion 1] (Eterna round: R97, puzzle: Exclusion 1) | 98.7 | – | 41.2 | –
29 | AACAUCGUAGGAUAUUCGUGCUCAGACAUGAGGAUCACCCAUGUUUGGUGGGUUGGAGAAGGAGAAGGGCGAUGGA [EX5 #18] (Eterna round: R97, puzzle: Exclusion 5) | 67.9 | – | 92.8 | –
30 | UUUUAACAUGAGGAUCACCCAUGUGAGGAUAUCGAAAUUUAUAUUAAUAUUUUUAAUACGAGAAGGCACAUUUU [JMF 70] (puzzle: Exclusion 1) | – | – | – | 49.6
31 | CGUGACUCAGGAUAUCUAUAGUAUCACAUGAGGAUCACCCAUGUCCAGCGAAAGCUGGAGGGAGAAGGGAGUCACG [Fiskers Ex 5 - 42] (Eterna round: R96, puzzle: Exclusion 5) | 74.1 | 230 | 188 | –
32 | GCACGGAGUGUAGGAUAUCUGUGCGAUUAGCUCAGAGAAGGACAUGAGGAUCACCCAUGUGUGUUCCAAUACUCAAAUCCGUGC [Eli exng1 - 064] (Eterna round: R96, puzzle: Exclusion NG 1) | 710 | 55.4 | 52.1 | –
33 | GGUGCGUAUGUGAGGAUAUGCUGGUCCUUGGAUCGGCAGAAGGCACAUGAGGAUCACCCAUGUGGUGUCGUUCC [salish99_Bmod_ex4_100] (puzzle: Brourd's mod of Exclusion 4) | – | – | – | 114
34 | CUUUUGGGAGGAUAUUAGUAGUAAAUAAAUAAAAUUACUACUGAGAAGGCACAUGAGGAUCACCCAUGUUCCUC [salish99_ex4_r3_071] (puzzle: Exclusion 4) | – | – | – | 19.7
35 | GUCAGCUCGUGAGGAUAUACAUGCGUGCUUCGGCACGUAUGAUAGAUCACAUGAGGAUCACCCAUGUAGAAGGUACGAGCUGAU [ENG2/4-C2] (Eterna round: R96, puzzle: Exclusion NG 2) | 14.9 | 10.8 | 15.2 | –
